Here are results for three molecules from patent publication US20190030120A1 (ACADEMIA SINICA, published 2019).

Assay [1] concerns the target T1, endogenous TIFA (U937 cells) (Homo sapiens, UniProt Q96CG3 1-184).
T1 construct: Endogenous protein of U937 cells
T1 sequence: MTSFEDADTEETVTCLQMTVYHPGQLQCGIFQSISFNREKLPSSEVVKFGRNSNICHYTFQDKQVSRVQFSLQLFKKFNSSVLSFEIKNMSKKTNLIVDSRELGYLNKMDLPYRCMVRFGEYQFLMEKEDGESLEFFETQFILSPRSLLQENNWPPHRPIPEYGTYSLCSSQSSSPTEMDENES
Nature of the assay: anti-Myc immunoprecipitation from lysates of transduced U937 cells, western blot.
Excerpt: AML lines were respectively infected with pseudotyped retroviruses carrying these constructs to generate stable cells. […] (FIG. 5C) Lysates from U937 cells stably expressing TIFA fragments shown in (FIG. 5B) were immunoprecipitated using anti-Myc immunobeads and analyzed by western blot.
We designed to fine-map the minimal effective region for molecular targeting of TIFA in AML cells through retroviral transduction (FIG. 5B).

The next assay concerns the target T2, Aurora A (UniProt O14965 1-403).
T2 construct: In the kinase assay it was present in 293T cell extracts, not purified; also called Aurora A kinase
T2 sequence (looked up): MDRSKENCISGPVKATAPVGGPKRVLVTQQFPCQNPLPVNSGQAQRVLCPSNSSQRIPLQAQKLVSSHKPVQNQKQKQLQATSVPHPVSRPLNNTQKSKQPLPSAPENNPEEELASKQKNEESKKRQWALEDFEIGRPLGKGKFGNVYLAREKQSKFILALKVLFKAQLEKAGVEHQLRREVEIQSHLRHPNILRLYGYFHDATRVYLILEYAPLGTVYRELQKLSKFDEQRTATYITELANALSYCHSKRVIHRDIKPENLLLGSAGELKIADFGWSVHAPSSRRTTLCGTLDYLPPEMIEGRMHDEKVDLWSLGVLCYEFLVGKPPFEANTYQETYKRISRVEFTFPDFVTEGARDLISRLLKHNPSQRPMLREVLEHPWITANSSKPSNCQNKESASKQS
Briefly: immunoprecipitation of Aurora A from lysates of 293T cells transfected with HA-tagged TIFA, western blot. A general note: In western blotting, separated proteins are transferred to a membrane and probed.

Description for Aurora A: After 48 h, cells were treated with or without 10 ng/mL TNF-α (R&D Systems) for 30 min, washed by PBS, and lysed with CHAPS lysis buffer (20 mM PIPES, 1 mM Na₃VO₄, 1 mM EGTA, 50 mM Tris-HCl, 150 mM NaCl, 50 mM NaF, 1% CHAPS, and 10% glycerol) supplemented with protease inhibitor cocktail (Roche), phosphatase inhibitor cocktail 3 (Sigma). Three vig of indicated antibody was pre-coated with 100 μL M-280 Dynabeads (lnvitrogen) overnight at 4° C. The 500 μg cell extracts were incubated with 15 μL antibody-coated Dynabeads at 4° C. overnight. The protein-bead complex was then washed with Tris-buffered saline Tween 20 (TBST) buffer and subjected to Western blot analysis.

B1: TIFA fragment F1F2 with two consecutive Myc-tags (peptide)
chain: MTSFEDADTEETVTCLQMTVYHPGQLQCGIFQSISFNREKLPSSEVVKFGRNSNICHYTFQDKQVSRVQFSLQLFKKFNSSVLSFEIKNMSKKTNLIVDSREL
notes: Stably expressed in U937 cells by retroviral transduction (pLNCX); also called F1-F2 peptide fragment; DN fragment; not shown: two consecutive Myc-tags (2Myc)
For the molecule B1, in assay [1], the binding result is recorded as “binds”.

B2: HA-tagged TIFA (full-length TIFA wild-type) (other)
chain: MTSFEDADTEETVTCLQMTVYHPGQLQCGIFQSISFNREKLPSSEVVKFGRNSNICHYTFQDKQVSRVQFSLQLFKKFNSSVLSFEIKNMSKKTNLIVDSRELGYLNKMDLPYRCMVRFGEYQFLMEKEDGESLEFFETQFILSPRSLLQENNWPPHRPIPEYGTYSLCSSQSSSPTEMDENES
notes: Expressed in 293T cells from pCDNA3.1. 'full-length TIFA wild-type following a synthesized HA-tag' is read here as an N-terminal tag; also called HA-TIFA; not shown: synthesized HA-tag
B2: the binding result with Aurora A is listed as “binds”.

B3: TIFA fragment F2F3 with two consecutive Myc-tags (peptide)
chain: VVKFGRNSNICHYTFQDKQVSRVQFSLQLFKKFNSSVLSFEIKNMSKKTNLIVDSRELGYLNKMDLPYRCMVRFGEYQFLMEKEDGESLEFFETQFILSPRSLLQENNWPPHRPIPEYGTYSLCSSQSSSPTEMDENES
notes: Stably expressed in U937 cells by retroviral transduction (pLNCX); also called F2-F3 peptide fragment; DN fragment; not shown: two consecutive Myc-tags (2Myc)
B3: in assay [1], the binding result was “binds”.
